Here are results for 1 molecule from patent US20110093964A1 (COMMISSARIAT A L ENERGIE ATOMIQUE, published 2011).

This experiment addresses native bovine brain calmodulin (bovine, UniProt P62157 2-149). As to the kind of experiment: tryptophan fluorescence of 5 uM MLCKp (excitation 280 nm) in 10 mM MES pH 6.5, one equivalent of calmodulin, no metals.

B1: MLCKp peptide, 17 residues, derived from the calmodulin-binding domain of a rabbit muscle myosin light chain kinase (CALBIOCHEM) (peptide)
peptide: Ac-RRKWQKTGHAVRAIGRL-NH2
notes: Its tryptophan is the fluorescent probe of the assay; also called calmodulin ligand peptide; the ligand
Consider B1, for which the binding result is “binds”.
